Reference: patent publication US12365710B2, “HMGB1 protein derivatives for the removal of biofilms” (RESEARCH INSTITUTE AT NATIONWIDE CHILDREN'S HOSPITAL, priority 2018, dated 2025)

Key:
B. cenocepacia biofilm = type: cell-based, Burkholderia cenocepacia; conditions: 200 nM added at 24 h, 16 h exposure
UPEC biofilm = assay: in vitro disruption of established biofilms, CLSM and COMSTAT; type: cell-based, Uropathogenic E. coli; conditions: added at 24 h, 16 h exposure; 200 nM unless stated
Description: (§1) FIGS. 5A-5E: Anti-biofilm effect of HMGB1 variants on high priority bacterial pathogens. Indicated HMGB1 variants or antibodies against DNABII proteins (α-1HFEc 1gG, 1 μM) were added at 24 h to the respective preformed bacterial biofilms, in vitro. After 16 h of Incubation, biofilms were stained with LIVE/DEAD®, then visualized via confocal laser scanning microscopy. Images were analyzed by COMSTAT to calculate average thickness and comparison to control was plotted. (FIG. 5A) Full-length HMGB1 isoforms (200 nM unless otherwise indicated) added to UPEC, B. cenocepacia, NTHI, or ESKAPE pathogens. 800 nM rHMGB1 and 200 nM mHMGB1 were added for S. aureus (ESKAPE). 800 nM rHMGB1, 800 nM mHMGB1, or 3.3 μM of α-1HFEc 1gG were added for E. faecium (ESKAPE) and were incubated for 1 h as opposed to 16 h to avoid potential degradation by E. faecium proteases. (FIG. 5B) Representative images of UPEC biofilms incubated with increasing concentrations of rHMGB1. (FIG. 5C) Individual domains of HMGB1 (200 nM) were tested for anti-biofilm activity as above (dotted line indicates control values). Bars represent the SEM. Statistical significance compared to control was assessed with unpaired t-tests, *P<0.05. […] (FIGS. 5D-5E) HMGB1 and variants disrupt preformed Klebsiella pneumoniae biofilms. rHMGB1, HMGB1 C45S (mHMGB1), bovine HMGB1 (bHMGB1), B box, B Box C106S (mB Box), A Box, and A+B Box were added (200 nM) at 24 h to preformed K. pneumoniae biofilms. After 16 h of incubation, biofilms were stained with LIVE/DEAD®, then visualized via confocal laser scanning microscopy. Images were analyzed by COMSTAT to calculate average thickness and total biomass. Error bars represent the SEM. ***P<0.0001; ns=not significant.
(§2) HMGB1 disrupts pathogenic biofilms: To test the effect of HMGB1 on bacterial biofilms (FIG. 5), Applicant cloned (IMPACT®, NEB Ipswich, MA), expressed (in E. coli), and purified (heparin sepharose chromatography to >95% purity) tagless human recombinant HMGB1 (rHMGB1) and an engineered C45 S variant (mHMGB1) that mimics the reduced form of HMGB1. rHMGB1 readily forms an intramolecular disulfide bond between C23 and C45 that contributes to pro-inflammatory activity whereas mHMGB1 cannot. These HMGB1 isoforms were evaluated for ability to disrupt established biofilms (formed for 24 h prior to addition). After a 16 h exposure to a single dose of rHMGB1 (200 nM; ˜25-fold greater than typical sepsis serum concentration, but not able to directly induce sepsis), biofilms formed by a wide variety of high priority species were stained with LIVE/DEAD®, analyzed using confocal laser scanning microscopy (CLSM) and COMSTAT analysis and compared to control biofilms. […] Preliminary analysis of PTMs by LC-MS/MS analysis (MS Bioworks, LLC Ann Arbor, MI) indicated minimal modification of both rHMGB1 and nHMGB1 (<20% of the observed peptides had any given PTM, FIG. 1C). […] Thus, while there are intrinsic differences in sensitivity among pathogens, the biofilms formed by all of the tested high priority pathogens were susceptible to a single dose of these non-antimicrobial compounds.
HMGB1 domain structure and anti-biofilm activity: Applicant then produced recombinant HMGB1 truncation variants, of 1) the A Box, a self-contained DNA-binding domain (residues 1-89); 2) an A-B Boxes construct (lacks the C tail; residues 1-185); and 3) the B Box (residues 80 to 176, FIGS. 1A and 1C). […] Since only the B Box can modulate DNA bending, without being bound by theory, it was hypothesized that HMGB1 disrupts biofilms at least in part via DNA-binding/bending. As the B Box is reported to contain pro-inflammatory activity, mediated primarily through interactions with TLR4-MD2 that are dependent on residue C106, Applicant created a modified B Box variant (mB Box) with a C106S mutation (FIGS. 1A and 1C).

[1] = tested on: Klebsiella pneumoniae biofilms; assay: in vitro disruption of pre-formed biofilms, LIVE/DEAD, CLSM and COMSTAT; type: cell-based; conditions: for disruption of established K. pneumoniae biofilms (average thickness, biomass): 200 nM added at 24 h, 16 h incubation; for % reduction in average thickness (AT), mean±SE / % reduction in biomass (BM), mean±SE: 200 nM added to pre-formed biofilms at 24 h, read at 40 h, vs untreated KP biofilms
Description: as §1
An in vitro biofilm assay was used to test the effect of HMGB1 and its variants on established bacterial biofilms. Applicant expressed, (in E. coli) and purified >95% human recombinant full length HMGB1 (rHMGB1; 1-215), a C45S mutated variant (mHMGB1) and the HMGB1 domains A Box (1-89), A+B Boxes (1-176), B Box (80-179), and B Box C106S (mB Box) (FIG. 3). […] To evaluate the effect of HMGB1 and its variants as well as a commercially available native bovine HMGB1 (used as a control) on established bacterial biofilms, each protein was added (at 200 nM), to pre-formed Klebsiella pneumoniae biofilms after 24 h of growth. After a 16 h incubation (40 h total biofilm growth), the biofilms were stained with LIVE/DEAD® and analyzed using confocal laser scanning microscopy (CLSM) and COMSTAT analysis to calculate the average thickness and total biomass of the biofilms. […] The results of this study lead to a noteworthy observation that a single dose of these non-antimicrobial compounds was able to disrupt recalcitrant biofilms. In addition, the HMGB1 variants have disrupted every bacterial species tested to date, which includes Uropathogenic E. coli, Burkholderia cenocepacia, Nontypeable Haemophilus influenzae (FIG. 6). A single dose at this concentration released of bacteria from their protective shield makes them vulnerable to clearance by antibiotics and the immune system.
Klebsiella pneumoniae (KP), a common cause of nosocomial infections was used for all BBs disruption assays. Human recombinant full length HMGB1 (rHMGB1; 1-215), a C45S mutation variant (mHMGB1) and the HMGB1 domains A Box (1-89), B Box (90-176), AB Boxes (1-176), B-linker Box (80-179), and B-linker Box C106S were expressed (in E. coli) and purified to >95%. To evaluate the effect of rHMGB1 and the various domains on established BBs, each protein species (200 nM) was added to pre-formed BBs at 24 h. At 40 h the BBs were washed, stained with LIVE/DEAD®, visualized via confocal laser scanning microscopy and images were analyzed by COMSTAT to calculate average thickness and biomass.

NTHI biofilm = assay: in vitro disruption of established biofilms, CLSM and COMSTAT; type: cell-based, Nontypeable Haemophilus influenzae; conditions: 200 nM added at 24 h, 16 h exposure
Description: as §1, §2
HMGB1 domain structure and anti-biofilm activity: Applicant then produced recombinant HMGB1 truncation variants, of 1) the A Box, a self-contained DNA-binding domain (residues 1-89); 2) an A-B Boxes construct (lacks the C tail; residues 1-185); and 3) the B Box (residues 80 to 176, FIGS. 1A and 1C). […]

Molecule | disruption of established Bc biofilms (B. cenocepacia biofilm) | disruption of established UPEC biofilms (UPEC biofilm) | disruption of established K. pneumoniae biofilms (average thickness, biomass) [1] | % reduction in average thickness (AT), mean±SE [1] | % reduction in biomass (BM), mean±SE [1] | disruption of established NTHI biofilms (NTHI biofilm)
AB Boxes: HMGB1 A and B domains (1-176), lacks the C tail (protein, UniProt P09429 1-176, looked up, fragment) MGKGDPKKPRGKMSSYAFFVQTCREEHKKKHPDASVNFSEFSKKCSERWKTMSAKEKGKFEDMAKADKARYEREMKTYIPPKGETKKKFKDPNAPKRPPSAFFLFCSEYRPKIKGEHPGLSIGDVAKKLGEMWNNTAADDKQPYEKKAAKLKEKYEKDIAAYRAKGKPDAAKKGVV | retained full anti-biofilm activity | retained full anti-biofilm activity | retained full anti-biofilm activity | 64%±0.08 | 73%±0.02 | retained full anti-biofilm activity
A Box: HMGB1 domain A Box (1-89) with C-terminal linker, lacks B box and C tail (protein, UniProt P09429 1-89, looked up, fragment, C-terminal linker, HMGB1 domain A Box (1-89) with C-terminal linker, lacks B box and C tail) MGKGDPKKPRGKMSSYAFFVQTCREEHKKKHPDASVNFSEFSKKCSERWKTMSAKEKGKFEDMAKADKARYEREMKTYIPPKGETKKKF | no significant effect | no significant effect | no significant effect | – | – | no significant effect
nHMGB1: native HMGB1 purified from calf thymus (Chondrex, Inc), commercially available, used as a control (protein, UniProt P10103 2-215, looked up) High mobility group protein B1: GKGDPKKPRGKMSSYAFFVQTCREEHKKKHPDASVNFSEFSKKCSERWKTMSAKEKGKFEDMAKADKARYEREMKTYIPPKGETKKKFKDPNAPKRPPSAFFLFCSEYRPKIKGEHPGLSIGDVAKKLGEMWNNTAADDKQPYEKKAAKLKEKYEKDIAAYRAKGKPDAAKKGVVKAEKSKKKKEEEEDEEDEEDEEEEEDEEDEEEEEDDDDE | equivalently disrupted | equivalently disrupted | equivalently disrupted | – | – | equivalently disrupted
B-Box: HMGB1 domain B Box (90-176), listed beside B-linker Box in Experiment No. 1 (protein, UniProt P09429 90-176, looked up, fragment) KDPNAPKRPPSAFFLFCSEYRPKIKGEHPGLSIGDVAKKLGEMWNNTAADDKQPYEKKAAKLKEKYEKDIAAYRAKGKPDAAKKGVV | – | – | – | 63%±0.1 | 68%±0.02 | –
